In the DeepSol protein solubility set:

test: soluble on expression in E. coli; label from the status in PepcDB or PDB records

Sequence | soluble on expression in E. coli
METRTAENTAIFMCKCCNLFSPNQSELVTHVSEKHGEEGVNVDDVIIPLRPLNTPENPNPSKGGDEFLVMKRKRGRPKGSTKKPSTEEEVVENLVSPSEDGPLATEEGSRLAPSSLECSKCCRKFSNTRQLRKHICIIVLNLGEEDGDAGNESDLDLEKTYKEDDREKASKRPRAQKTEKVQKISGKEAGQLSGAKKPIISVVLTAHEAIPGATKIIPVEAGPPETGAPPPETTAADLVPRRGYQEYAIQQTPYEQPMKSSRLGPTQLKIFTCEYCNKVFKFKHSLQAHLRIHTNEKPYKCSQCSYASAIKANLNVHLRKHTGEKFACDYCSFTCLSKGHLKVHIERVHKKIKQHCRFCKKKYSDVKNLIKHIRDMHDPQDKKVKEALDELRLMTREGKRQLLYDCHICERKFKNELDRDRHMLVHGDKWPFACELCGHGATKYQALELHVRKHPFVYVCALCLKKFVSSIRLRSHIREVHGAAQETLVFTSSINQSFCLLEPGGDIQQEALGDQLQLAAEEFVCPEIDVRKEEACPGEAQPEVGLRELVVPGDAHAPPPGPLATPQSESSSLSPCKLETTVVSSDLNSLGVVSDDFLLKSDTSSAEPPAAAEATSDTQHRDSAQTQGEEVTLLLAKAKSAGPDPESSPGGRQKVGALPASESDSSTCLRANPTEASDLLPTVTDGGDLGVCQPDSCTPSSEHHPGSTAFMKVLDSLQKKQMNTSLCERIRKVYGDLECEYCGKLFWYQVHFDMHVRTHTREHLYYCSQCHYSSITKNCLKRHVIQKHSNILLKCPTDGCDYSTPDKYKLQAHLKVHTELDKRSYSCPVCEKSFSEDRLIKSHIKTNHPEVSMNTISEVLGRRVQLKGLIGKRAMKCPYCDFYFMKNGSDLQRHIWAHEGVKPFKCSLCEYATRSKSNLKAHMNRHSTEKTHLCDMCGKKFKSKGTLKSHKLLHTSDGKQFKCTVCDYTAAQKPQLLRHMEQHASFKPFRCAHCHYSCNISGSLKRHYNRKHPNEEYTNVGSGELAAEALIQQGGLKCPVCSFVYGTKWEFNRHLKNKHGLKVVEIDGDPKWEPAAETPEEPSTQYLYITEAEDVQGTQAAVAALQDLRYTSESGDRLDPTAVNILQQIIELGSETHDAAAVASVVAMAPGTVTVVKQVTDEEPSSNHTVMIQETLQQASVELAEQHHLVVSSDDVEGIETVTVYTQGGEASEFIVYVQEAVQPVEEQVGEQPAPEL | soluble
GSTSAKRIQKELAEITLDPPPNCSAGPKGDNIYEWRSTILGPPGSVYEGGVFFLDITFSPDYPFKPPKVTFRTRIYHCNINSQGVICLDILKDNWSPALTISKVLLSICSLLTDCNPADPLVGSIATQYMTNRAEHDRMARQWTKRYAT | soluble
MSLKQKILIVEDSLTIRRMLIQAIAQQTGLEIDAFDTLEGARHCRGEEYVVALVDLTLPDAPSGEAVKVLLERGLPVVILTADISEEKRAAWLEAGVLDYVMKDSRHSLQYAVSLVHRLYLNQRIEVLVVDDSRTSRHRTMAQLRKQLLQVHEASHAREALAQLEQNPAIRLVLVDYYMPEIDGISLVRMLRERYSKQQLAIIGISVSDKRGLSARYLKQGANDFLNQPFEPEELQCRVSHNLEALEQFNSIQESANRDYLTGLYNRRYWFNEGQKWFEEHQRQETPLALCVLDVDHFKQVNDHWGHAIGDQLLCHLTRLLTQFFPDAMIARFGGEEFALMVPHCTVPVLLKRLEGLRQQMRQQPLSRETPLFVRASFGVIKVGRGSMDEALSEADRLLYQAKNTGRDKIVSQDSSEGHHHHHH | soluble
MIRSSIDLMLKTGAAALAKNFENRDPIAGQREILARLVVAAAVTRFGRDHGFAELAGEPFDRLYAEFRRRVPIRTYADFWRDYFSAWQSDANGSQRLLLEDVTWPGRIPFFCETSGTTAPTKYIPFSREMFAANKRAAIDLTACYLHRTPRSRLFQGKLLYMAGNTSLTDLGNGVQSGDMSGITLRHRPFYLRPFVAPGMAVSALPWEEKVVELAGLLLSDRSIRGISGVPPWIILLLQRVEEMGHRPIAELLPNLELIIHGGTSMKPYRREFDGLFPRRRPHFLEVLPSSEAFMAFQLPGEDRMRLVPHYGAFFEFIPIEDLDEGGTPAADAPTVPLEAVETGRRYAVILTTCAGLWRYHIGDTLRFTALSPHFIEFTGRDRFLDRFEEKVTQGEVEEAVARLNQLDGIEVREFMVGPDIGERRHLWVLAVGEMNERSGDVLGRHLDATLRSLNADYATFRSQGRIAGPRVVTVSGDVIYRWSKEVRGKLGGQSKIPHVDPTVEGEMVASLAAFARRFQACWIADSFQGFGPTGRVKVQNSSNFTGSRSLPERTRPSSSVVLEHHHHHH | not soluble
SDLCQLFVEQLFGFQDPASLHVLINEIPCARKNLISLRRFSLLIAEPQWFTGSIYDNLVLNHRNVPNKIIIEQLKNVGLADKIIQLPEGLRTILYEWQDVFTLVELTKLMLVRALLLQPELIVIDRAFDILNHQEVNEMMELVLSLKNTLLAIVSQRSDFNYLNNRLVISS | not soluble
MGSDKIHHHHHHMKIGFIGTGNMGTILIESFIESKAADPSNMTITNRTIEKALHIKNRYNSINVTESLEKLVSENEMIFICVKPLDIYPLLARALPYLRKDHILISITSPVQTEQLEQYVPCQVARVIPSITNRALAGVSLVTFGTSCGESAKAKINELMQHISHPLQIESDITRVASDIVSCGPAFMSYLIQRFIDAAVSETSVSKQDAILMCKEMLVGMGKLLETELYTLPALQEKVCVKGGVTGEGIKALESGVQDMFHRVFQNTHMKYEEDISAVKKQFHV | not soluble
AHHHHHHASAKWVCKICGYIYDEDAGDPDNGISPGTKFEELPDDWVCPICGAPKSEFEKLEDGSFLPYLSSPYPLYLINLMLMECPPDIYSFSTQNSNNQLKGLFMFKKKEYDRWMVEAKRTLASAYSDLREGYYEWASFKAQQAAELAVKAILRGLSFAPIGHSITKLLRELAENNIKGPKKILYFAMKLDRNYIALRYPDAYPEGPH | soluble
WGYQTDGRFQNFDEINTYPIQNGDNGNSKELPGDYILKDVNGDGVVNDLDKTPLFWSGSPLIHYGFNVEASWKNFDFYALFQGSALYTVQFDEVYAKMLCFKGGNTPEYFYDRWHLSDPYDANSEWIPGEWPAIRLEQDMGSFYTRDSQIWRKNASYLRLKTIEIGYTFSPRLMHKLGIGSLRIYANGNNLFTVCDPFVKAFDPEKIEGDYSAGLNYPLNKSFNFGLTLNF | not soluble
MDNLKAELAQAKIDIDQLEKKQWETLEQLVMRDKLIEQCSLHTEILQKDFRESEARIIQLEQQLLEPGECGSELRATIKNQEELLKKQSEEIERCKEESRMLIQQKEEMENIHSEEIFGKNKTISNLRKQIDGDVERKKAKIRTLRKELCSADMNTGKMCRRAKRAEDRIAKLESDLEEERQKHVGQDISHILDQHNSTVMALEMQLANTQQEKATLNTSVEDLKLRTEEWKHNLLGQFEVLTANSKRECESKEEQIANHKREIMEKDSKIECLMELIQNSERSAEIQKMHDALREKDLKISELSEKLQGLLINQEGEADDTMIDQDDDNKSTHSEDSDGWDKINAI | not soluble
MAHHHHHHMSKSIAVIAAGAPAALVQAASAMVSKATGGAVKAMQATSAASNAIVVGMQAPRGVYACVAEPPSTASGPYAGVKTVVVRAILPRRAPDTMQVRDILDVYPASGITCEQETAEAVESFSKAAKVAVEKAKAMKATRVTLVMKPATKYERLNSLFRETCTKTIEAAGLSVETATTAAATNTLIMFPEKMSVVMVSDDPVCENVQYAFAGVVGGAHTTYYTDAGSTIHGGHSYKSVAMALAEELKSLGMKAEAAKVEAAAQKSPRNAAAAM | not soluble
MAHHHHHHMPLPPVESGPAAMTRRNFLVEMNRLRVSQYMPTRKQLEEEDLRIATIRQEEKRAKHAEWAESRRKAADSYNAAGTNSGRPLPGSVSRSMRASGKGKPAENTYKLEKEEEAAKKREYNRLYEQEAKHQLAIRQATLKQMHDDEVRQMEALRKVNEEEDRKVAEAHAQAMEEERQYMERLKQSNKRELAARKAEQQAKEARDRQLQELVNENNRHRAEMDERRLKNVTRMLHLQNEQFHREAMMSKKASEAKHYEEVAATEERNRRLTKEEQEAAQRKKEQFRQDFEDCIARDKEFRRTHNYDEPMEVTRQRNELAAQSYRLVLEEERLQNAERRQQYRKDLMDQIMAKQTYRMTHLDEAGI | not soluble
MIKESIILKNLEVPTGNICVIKGDKGKLEFLSLGDYGKEVNVKADFLGITRDLEGVPNGKVQPLTKKWVVTMSTQYGCDSGCKFCDVPKVGKGVNVTYNDLKTQLEQALNLHPEIDRTERLNIHYARMGEPSWNNDVLDFTRNLKNIVKPYIGESLIHPVFTTMCPNKNKFLAHRINEWVDIKNNLFQGDAGLQLSINSTNENQRRDMFRGNALTLNEISSIGNDLPMPKGRKYCLNFALADEYEVDAKVLKKLFDPSKFMVKITPLHKTVSSIENDIKTTKGYVSYTPYKDIENDLKKMGFDVLVFVPSYDEDLGRITCGNVILSGSLPKCKYKINLEHHHHHH | not soluble
MGSDKIHHHHHHMQSTASHTKAPGKSHPVVTEDQYFSVSPLMLLADNAALFSVYLRQGNNFVLYTHAGEMFTHRHKQRLAENGVTEVWLKESQRHAYTAHVEQHLGNVLADDSLPAEARAGALYGIASDALQDVFAQHGAGALPADTARRARQLVEHIISFLKVPNGITALGRFIAHDYHSWTHSLNTTFYTLGILQSYGLPDESMAHIGLGAMLHDIGKAEIPSSILLKPGPLTASERQCINTHPLMGVARLAQTELPQTTLNCILFHHEKLDGSGYPSGIGGTAIPLAVRAVTVADIYDALASERPYAAARPPFAVLQLMRGEMADELDMDVFKNFVLMLSNAGLTKT | not soluble
MGSDKIHHHHHHMYVENACYQKAILPEHVGNALIESLPKKLTDEELVDKLANYPKCLTEDTQNDPEIRAEYLTRIKRLRQPQLVYFDVFRAVEIAIKDGYSAKNPLSPTTMNYLHYSLEDRPIIEPNTGFFKPKGCGITIIGESGVGKTSMLEQVLSIYPDVIKHQSYSGMSLPLTQVVWLKVDCPDDSSVKGLCHRILDEIDRKLDIKDTKPQNTIALLIKQIEAKMKSNYLGILVIDEMQNLNTAKAGGAERLLGFLHNLMNNLGIPILFCANPPFDKLLSKTLKAARRAESGGYFDIGLLKNSEDEWGLFVDELWKLQWTNVQTPLTQDLSDRLFNLSVGNMDLAVRIFYASQRAVIGSLNERITTDVLDKGASIAIRASKSTTDELRLSLLKRKNESKKETPNNEASEEAKVITESKGKFVTIPGDLSRPHHPEFAERITELQYEDDLHALIEDPALIQRASEEEHPLDMLKSAGLFCEDPLKTFG | not soluble
